Measurements as given in article PMC2141752 (The Journal of Cell Biology, 1998).

B1: β–caveolin-1 (natural protein)
chain: MAEEMSEKQVYDAHTKEIDLVNRDPKHLNDDVVKIDFEDVIAEPEGTHSFDGIWKASFTTFTVTKYWFYRLLSALFGIPMALIWGIYFAILSFLHIWAVVPCIKSFLIEIQCISRVYSIYVHTFCDPFFEAVGKIFSNIRINMQKET
B2: canine caveolin-2 (natural protein)
chain: MGLETEKADVQLCMDDDAYSRHSAVDFGDLEQLADSGSDRDPRRLNSHLQVGFEDVIAEPVSTHSFDKVWICSHALFEVSKYVIYKFLTLLLAMPMAFAAGVLFATLSCLHIWIIMPFVKTCLMVLPSVQTIWKSVTDAVIAPLCSSVGRSFSSVSLQVSHD
modifications: phosphorylated at steady state (sites not given)
B3: α–caveolin-1 (natural protein)
chain: MSGGKYVDSEGHLYTVPIREQGNIYKPNNKAMAEEMSEKQVYDAHTKEIDLVNRDPKHLNDDVVKIDFEDVIAEPEGTHSFDGIWKASFTTFTVTKYWFYRLLSALFGIPMALIWGIYFAILSFLHIWAVVPCIKSFLIEIQCISRVYSIYVHTFCDPFFEAVGKIFSNIRINMQKET

How the values were obtained:
[1] = target: B2; test: co-IP
[2] = target: B3; test: co-IP

Binder | ratio in the immunoprecipitate [1] | ratio in the immunoprecipitate [2]
B1 | ~1 β–caveolin-1 per caveolin-2 | ~1 β–caveolin-1 per α–caveolin-1
B2 |  | ~0.5 caveolin-2 per α–caveolin-1
B3 | ~1 α–caveolin-1 per caveolin-2 | 
